Test results published in the supplement of paper PMC10567573.
± gives the standard deviation.

Assay: protein stability index of a GFP-peptide fusion (GPS, HEK-293T) (PSI 1-6); higher = more stable
[1] = treatment: DMSO, c terminus: a fixed tail appended
[2] = treatment: MLN4924 1 uM, 8 h, c terminus: a fixed tail appended
[3] = treatment: DMSO, c terminus: native
[4] = treatment: MLN4924 1 uM, 8 h, c terminus: native
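Note: 24-mer peptide tiles fused after GFP, lentivirally expressed, FACS-sorted into six equal bins by GFP/DsRed ratio, decoded by Illumina sequencing, PSI is the read-weighted mean bin number.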

PSALVPSVTEYRLDGHTISDLSRS [MYBL2]
protein stability index [1]: 4.25 ± 0.2
protein stability index [2]: 4.25 ± 0.39

IDREVDLMMRGVKHHNLEGLRKRI [IQUB]
protein stability index [1]: 3.29 ± 0.32
protein stability index [2]: 3.62 ± 0.27

DQVMEFSWSALWNITDETPDNCEM [ZER1]
protein stability index [1]: 4.12 ± 0.27
protein stability index [2]: 4.04 ± 0.5

LDKVKDGGYRPAEDKIFPVPEEPP [ZBED1]
protein stability index [1]: 5.11 ± 0.18
protein stability index [2]: 5 ± 0.16

KALEDFEDLCDRVFSDEDSELDN [FAM9B]
protein stability index [3]: 4.98 ± 0.16
protein stability index [4]: 5.17 ± 0.3

LTGTESPFDLEQQWQDLMSIMEMQ [NFE2L1]
protein stability index [1]: 3.95 ± 0.23
protein stability index [2]: 3.88 ± 0.47

VRKWRVKSALGAMGQWQLEVGDPA [DPCD]
protein stability index [1]: 2.46 ± 0.26
protein stability index [2]: 2.57 ± 0.21

GGAAWSIGAAPFSGRRNWCSYVVT [EMID1]
protein stability index [1]: 1.94 ± 0.58
protein stability index [2]: 2.08 ± 0.095

SPSVMRLVHTQEPGEWLELLLEPG [ALKBH7]
protein stability index [1]: 2.83 ± 0.23
protein stability index [2]: 3 ± 0.24

WVDITDVPPGDYLFQVVINPNFEV [LOXL2]
protein stability index [1]: 2.94 ± 0.71
protein stability index [2]: 2.91 ± 0.98

IEELCQKREELCRQIQEEEDEKQR [SSNA1]
protein stability index [1]: 5.43 ± 0.1
protein stability index [2]: 5.52 ± 0.12

CYLELFPAHLYFQAHGSEGLTFQG [PLEKHN1]
protein stability index [1]: 2.89 ± 0.53
protein stability index [2]: 2.31 ± 0.26

SWREAKVSWFGSPTTSFLSISKLS [PWWP2B]
protein stability index [1]: 2.15 ± 0.46
protein stability index [2]: 2.44 ± 0.43

MEEAAVASVVLPARELQEALPEAP [BCL2L13]
protein stability index [1]: 5.27 ± 0.15
protein stability index [2]: 5.51 ± 0.069

HVFSELWDLSEAWMQANYDPLSDS [ELOA2]
protein stability index [1]: 2.6 ± 0.32
protein stability index [2]: 2.63 ± 0.31

NCQSVAQMNLLQKYSLLKLTALLE [DLC1]
protein stability index [1]: 2.25 ± 0.36
protein stability index [2]: 2.44 ± 0.11

AEAEALYSAYIRRCACAASSDESP [TTC32]
protein stability index [1]: 3.25 ± 0.28
protein stability index [2]: 3.42 ± 0.3

FRVAKKRAPKVLGTTLVVGLLAGV [GDAP1]
protein stability index [1]: 2.47 ± 0.86
protein stability index [2]: 1.82 ± 0.61

TASSSYGKGEGPIWLDNLHCTGNE [LOXL2]
protein stability index [1]: 3.91 ± 0.16
protein stability index [2]: 3.91 ± 0.25

DREVAIYSKESIIFGASSVDFSLS [GNB5]
protein stability index [1]: 2.98 ± 0.17
protein stability index [2]: 3.2 ± 0.27

TRGHAISILFGFWTSFICDTYIVL [SMIM2]
protein stability index [1]: 2.73 ± 0.4
protein stability index [2]: 2.78 ± 0.46

AEESNPPLQDFPNSISSDKEATVP [MIA2]
protein stability index [1]: 5.41 ± 0.1
protein stability index [2]: 5.36 ± 0.25

KMKFVIGNGKNLVDFTFVENVVHG [NSDHL]
protein stability index [1]: 2.24 ± 0.19
protein stability index [2]: 2.24 ± 0.47

AQTLAYGDMNHEWIGNEWLPSLGL [PPFIA4]
protein stability index [1]: 2.54 ± 0.43
protein stability index [2]: 2.24 ± 0.029

LLVGAAVFDALESDHEMREEEKLK [KCNK9]
protein stability index [1]: 4.26 ± 0.34
protein stability index [2]: 4.29 ± 0.24

GPDHRLRLWRLFQTLDVNRDGGLC [SLC25A25]
protein stability index [1]: 2.29 ± 0.11
protein stability index [2]: 2.23 ± 0.22

YNYMMGIEFNPRIGKWFDFKLFFN [DHCR7]
protein stability index [1]: 2.52 ± 0.53
protein stability index [2]: 2.23 ± 0.33

SKYGRDWERYTAAVPYRLLPGIF [DHCR7]
protein stability index [3]: 2.87 ± 0.4
protein stability index [4]: 2.57 ± 0.46

PLHLSALRDDVLCARMLYNYGADT [ASB7]
protein stability index [1]: 2.27 ± 0.15
protein stability index [2]: 2.48 ± 0.38

RDVAAEAVARSPKRPAWGSRRFEA [POMT2]
protein stability index [1]: 3.73 ± 0.23
protein stability index [2]: 3.94 ± 0.085

IDKVRFLEQQNQVLETKWELLQQL [KRT71]
protein stability index [1]: 2.74 ± 0.1
protein stability index [2]: 2.73 ± 0.27

RSGRLILWEAPPLGAGGGSLLPGA [NEK8]
protein stability index [1]: 2.84 ± 0.43
protein stability index [2]: 3.11 ± 0.3

LQTLRSFSHTLVSLSLFGCTNIFY [ZER1]
protein stability index [1]: 2.26 ± 0.35
protein stability index [2]: 3.67 ± 1.3

AEPDMDDPAYIAVLVLIFNAAKTC [INTS4]
protein stability index [1]: 2.37 ± 0.47
protein stability index [2]: 2.12 ± 0.29

DDLRINLWHLAITDRSFNIVDIKP [PPP2R2C]
protein stability index [1]: 2.19 ± 0.2
protein stability index [2]: 2.17 ± 0.19

ANVTLSLDTVEEVLSVSKILHIPQ [KLHL14]
protein stability index [1]: 2.31 ± 0.43
protein stability index [2]: 2.21 ± 0.38
